First the molecules themselves.
B1: Arabidopsis thaliana AtSLY1 (yeast bait fusion) [Arabidopsis thaliana] / A. thaliana GAI (yeast prey fusion) [Arabidopsis thaliana] (parent complex)
chain 1: MKRSTTDSDLAGDAHNETNKKMKSTEEEEIGFSNLDENLVYEVLKHVDAKTLAMSSCVSKIWHKTAQDERLWELICTRHWTNIGCGQNQLRSVVLALGGFRRLHSLYLWPLSKPNPRARFGKDELKLTLSLLSIRYYEKMSFTKRPLPESK
chain 2: MKRDHHHHHHQDKKTMMMNEEDDGNGMDELLAVLGYKVRSSEMADVAQKLEQLEVMMSNVQEDDLSQLATETVHYNPAELYTWLDSMLTDLNPPSSNAEYDLKAIPGDAILNQFAIDSASSSNQGGGGDTYTTNKRLKCSNGVVETTTATAESTRHVVLVDSQENGVRLVHALLACAEAVQKENLTVAEALVKQIGFLAVSQIGAMRKVATYFAEALARRIYRLSPSQSPIDHSLSDTLQMHFYETCPYLKFAHFTANQAILEAFQGKKRVHVIDFSMSQGLQWPALMQALALRPGGPPVFRLTGIGPPAPDNFDYLHEVGCKLAHLAEAIHVEFEYRGFVANTLADLDASMLELRPSEIESVAVNSVFELHKLLGRPGAIDKVLGVVNQIKPEIFTVVEQESNHNSPIFLDRFTESLHYYSTLFDSLEGVPSGQDKVMSEVYLGKQICNVVACDGPDRVERHETLSQWRNRFGSAGFAAAHIGSNAFKQASMLLALFNGGEGYRVEESDGCLMLGWHTRPLIATSAWKLSTN

The variants in the first test derive from B1. Briefly: yeast 2-hybrid; parent: 0.38; read off a plot.
In the case of chain 1 MKRSTTDSDLAGDAHNETNKKMKSTEEEEIGFSNLDENLVYEVLKHVDAKTLAMSSCVSKIWHKTAQDERLWELICTRHWTNIGCGQNQLRSVVLALGGFRRLHSLYLWPLSKPNPRARFGKDELRLTLSLLSIRYYEKMSFTKRPLPESK [chain 1 K126R], the response is ~0.26 β-galactosidase units.

Variants of B1 are the subject of the next test. Briefly: yeast 2-hybrid; parent: 0.35; read off a plot.
Turning to chain 1 MKRSTTDSDLAGDAHNETNKKMKSTEEEEIGFSNLDENLVYEVLKHVDAKTLAMSSCVSKIWHKTAQDERLWELICTRHWTNIGCGQNQLRSVVLALGGFRRLYSLYLWPLSKPNPRARFGKDELKLTLSLLSIRYYKKMSFTKRPLPESK [chain 1 H104Y, chain 1 E138K], the response is ~160 β-galactosidase units. On to chain 1 MKRSTTDSDLAGDAHNETNKKMKSTEEEEIGFSNLDENLVYEVLKHVDAKTLAMSSCVSKIWHKTAQDERLWELICTRHWTNIGCGQNQLRSVVLALGGFRRLHSLYLWPLSKLNPRARFGKDELKLTLSLLSIRYYKKMSFTKRPLPESK [chain 1 P114L, chain 1 E138K], for which the response is ~77 β-galactosidase units. Same read-out and setting: next, chain 1 MKRSTTDSDLAGDAHNETNKKMKSTEEEEIGFSNLDENLVYEVLKHVDAKTLAMSSCVSKIWHKTAQDERLWELICTRHWTNIGCGQNQLRSVVLALGGFRRLHSLYLWPLSKPNPRARFGKDELKLALSLLSIRYYKKMSFTKRPLPESK [chain 1 T128A, chain 1 E138K]: ~110 β-galactosidase units.

Variants of B1 are the subject of another test. Briefly: yeast 2-hybrid; parent: 0.35; read off a plot. The source holds these as a separate data set.
Consider chain 1 MKRSTTDSDLAGDAHNETNKKMKSTEEEEIGFSNLDENLVYEVLKHVDAKTLAMSSCVSKIWHKTAQDERLWELICTRHWTNIGCGQNQLRSVVLALGGFRRLHSLYLWPLSKRNPRARFGKDELKLTLSLLSIRYYEKMSFTKRPLPESK [chain 1 P114R], for which the response is ~94 β-galactosidase units. With chain 1 MKRSTTDSDLAGDAHNETNKKMKSTEEEEIGFSNLDENLVYEVLKHVDAKTLAMSSCVSKIWHKTAQDERLWELICTRHWTNIGCGQNQLRSVVLALGGFRRLHSLYLWPLSKHNPRARFGKDELKLTLSLLSIRYYEKMSFTKRPLPESK [chain 1 P114H], the response was ~77 β-galactosidase units. On the same count and under the same terms, for chain 1 MKRSTTDSDLAGDAHNETNKKMKSTEEEEIGFSNLDENLVYEVLKHVDAKTLAMSSCVSKIWHKTAQDERLWELICTRHWTNIGCGQNQLRSVVLALGGFRRLHSLYLWPLSKTNPRARFGKDELKLTLSLLSIRYYEKMSFTKRPLPESK [chain 1 P114T] the value was ~34 β-galactosidase units. The same measure, in the same setting: for chain 1 MKRSTTDSDLAGDAHNETNKKMKSTEEEEIGFSNLDENLVYEVLKHVDAKTLAMSSCVSKIWHKTAQDERLWELICTRHWTNIGCGQNQLRSVVLALGGFRRLHSLYLWPLSKANPRARFGKDELKLTLSLLSIRYYEKMSFTKRPLPESK [chain 1 P114A] the value was ~89 β-galactosidase units.

The values are drawn from article PMC10724065, “Evolution of a plant growth-regulatory protein interaction specificity” (Nature Plants, 2023).
